In experiment [1] the target is HIV-1 Yu2 gp160 (Env) expressed on the 293T cell surface (HIV-1 Yu2) (UniProt P35961). Kind of experiment: flow cytometry, 293T cells transfected with Yu2 gp160, primary antibody 10 µg/ml.
Experiment [2] concerns the target Recombinant HIV-1 gp41MN (HIV-1 MN) (UniProt P05877). Briefly: ELISA on coated gp41 (HIV-1 MN per the example), OD at 405 nm. For orientation: An ELISA detects its analyte on a solid surface through an enzyme-linked reagent.
Experiment [3] has as its target HIV-1 gp41 (strain not stated) (HIV-1). Kind of experiment: SPR (BIAcore), Env protein immobilized on CM5 chip, antibody as analyte. Background: SPR reads the build-up and loss of mass on a sensor chip optically.
For experiment [4], the target named is BG505 SOSIP.664 gp140 trimer (HIV-1 BG505). Briefly: method not given.
For experiment [5], the target named is HIV-1 gp41 (strain not stated) (HIV-1). Briefly: method not given.
Experiment [6] has as its target full-length gp120 monomer (HIV-1 (Yu2 by the materials, not named in the results)) (UniProt P35961). Kind of experiment: method not given.
Experiment [7] has as its target SF162 gp140 trimer (HIV-1 SF162) (UniProt P19550). Kind of experiment: ELISA on coated SF162 gp140 trimer, OD at 405 nm, 1x PBS as blank.
The target in experiment [8] is BG505 SOSIP.664 gp140 trimer (HIV-1 BG505). Kind of experiment: ELISA on coated BG505 SOSIP.664 gp140 trimer, OD at 405 nm, 1x PBS as blank.
Experiment [9] addresses full-length gp120 monomer (HIV-1 (Yu2 by the materials, not named in the results)) (UniProt P35961). Briefly: ELISA on coated full-length gp120 monomer, OD at 405 nm, 1x PBS as blank.
For experiment [10] the target is unchanged. Kind of experiment: SPR (BIAcore), Env protein immobilized on CM5 chip, antibody as analyte.

Experimental findings from patent US20180028658A1 are described below.

SF162 gp140 trimer (HIV-1 SF162), sequence (P19550 32-675 limits assumed): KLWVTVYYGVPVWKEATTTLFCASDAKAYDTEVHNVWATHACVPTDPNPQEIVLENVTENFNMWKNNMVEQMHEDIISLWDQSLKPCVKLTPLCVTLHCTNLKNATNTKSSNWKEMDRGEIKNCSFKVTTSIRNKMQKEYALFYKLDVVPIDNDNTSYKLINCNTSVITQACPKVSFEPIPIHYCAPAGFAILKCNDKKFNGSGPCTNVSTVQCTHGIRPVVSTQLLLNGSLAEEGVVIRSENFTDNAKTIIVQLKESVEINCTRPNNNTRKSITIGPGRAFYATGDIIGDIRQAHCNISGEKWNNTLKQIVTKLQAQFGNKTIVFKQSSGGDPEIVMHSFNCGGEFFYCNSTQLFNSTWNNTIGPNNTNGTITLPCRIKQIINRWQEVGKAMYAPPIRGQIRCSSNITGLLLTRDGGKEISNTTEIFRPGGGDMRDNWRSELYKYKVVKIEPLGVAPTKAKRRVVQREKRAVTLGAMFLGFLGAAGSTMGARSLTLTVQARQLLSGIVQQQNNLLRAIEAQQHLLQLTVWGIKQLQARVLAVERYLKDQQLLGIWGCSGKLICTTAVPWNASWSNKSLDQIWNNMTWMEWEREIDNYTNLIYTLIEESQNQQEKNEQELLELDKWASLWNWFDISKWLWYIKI

Substance HIV 1 V3 Monoclonal Antibody (2219) came in with a Percentage of recognition of HIV-1 Env in [1] of 3.1%.

As for HIV-1 gp120 MAb (HJ16) (antibody), the Percentage of recognition of HIV-1 Env in [1] came out at 17.6%.

In experiment [1], HIV-1 gp41 Monoclonal Antibody (50-69) gave a Percentage of recognition of HIV-1 Env of 4.5%.

In the case of HIV-1 gp120 MAb (39F) (antibody), the Percentage of recognition of HIV-1 Env in experiment [1] was determined as 2.6%.

In experiment [1], “HIV 1 gp41 Monoclonal Antibody (167-7, 67-D IV)” yielded a Percentage of recognition of HIV-1 Env of 11.8%.

In turn, HIV-1 gp41 Monoclonal (98-6) (antibody) came in with a Percentage of recognition of HIV-1 Env in [1] of 3.5%.

In the case of HIV 1 V3 Monoclonal Antibody (3869), the Percentage of recognition of HIV-1 Env in experiment [1] came out at 2.6%.

“HIV-1 gp120 Monoclonal Antibody (IgG1 b12)” yielded a Percentage of recognition of HIV-1 Env in experiment [1] of 9.8%.

Regarding HIV-1 gp41 Monoclonal Antibody (4E10), the EC50 (read off the curve) in experiment [2] turned out to be 0.03 µg/mL. In experiment [3], this substance yielded a Kd of 10.8 nM, a koff of 2.14e-05 s⁻¹ and a kon of 1980 M⁻¹ s⁻¹. This substance yielded a Percentage of recognition of HIV-1 Env in [1] of 13.4%.

Regarding NIH45-46 (antibody), the figures for the Kd in [4], in experiment [5] and in experiment [6] were 0.1 nM, 1 nM and 0.1 nM, respectively. Moreover, the concentration for a half-maximal effect (EC50 (read off the curve)) in experiment [7] was 0.2 µg/mL; in experiment [8], 0.02 µg/mL.

In [1], HIV-1 gp120 Monoclonal Antibody (F105) showed a Percentage of recognition of HIV-1 Env of 4.5%.

The substance HIV-1 gp120 MAb (VRC03) (antibody) registered a Percentage of recognition of HIV-1 Env in experiment [1] of 6.4%.

Take HIV-1 gp41 Monoclonal Antibody (2F5): the EC50 (read off the curve) in experiment [2] is 0.03 µg/mL. The same substance came in with a Percentage of recognition of HIV-1 Env in [1] of 9.9%.

For HIV-1 MAb PG9 (antibody), the Percentage of recognition of HIV-1 Env in experiment [1] was found to be 6%.

HIV-1 gp41 Monoclonal Antibody (5F3) showed a Percentage of recognition of HIV-1 Env in experiment [1] of 6.4%.

For HIV 1 V3 Monoclonal Antibody (3074), the Percentage of recognition of HIV-1 Env in experiment [1] came out at 3.4%.

Substance “HIV-1 gp120 Monoclonal (2G12) (antibody)” registered a Percentage of recognition of HIV-1 Env in experiment [1] of 22.8%.

Turning to “Monoclonal Antibodies to HIV-1 V3 (268) (antibody)”, the Percentage of recognition of HIV-1 Env in [1] is 2.1%.

Consider HIV-1 anti-gp41 mAb (10E8) (antibody), for which, in experiment [3], the Kd was 15.5 nM and the koff came out at 0.000901 s⁻¹. The Percentage of recognition of HIV-1 Env in experiment [1] amounted to 11.7%.

In experiment [1], HIV-1 gp41 Monoclonal Antibody (F240) came in with a Percentage of recognition of HIV-1 Env of 3.5%.

As to HIV-1 anti-gp41 mAb (7H6) (antibody), the Percentage of recognition of HIV-1 Env in experiment [1] was determined as 19.8%.

The substance “HIV-1 gp120 Monoclonal Antibody (F425 B4e8)” returned a Percentage of recognition of HIV-1 Env in experiment [1] of 6.4%.

With “HIV-1 gp41 Monoclonal (126-7) (antibody)”, the Percentage of recognition of HIV-1 Env in [1] turned out to be 3.2%.

Regarding HIV-1 gp120 MAb (VRC01) (antibody), the EC50 (read off the curve) in experiment [7] came to 0.05 µg/mL; in [9], 0.3 µg/mL; in [8], 0.03 µg/mL. Besides, the Percentage of recognition of HIV-1 Env in [1] was 6%.

Consider HIV 1 V3 Monoclonal Antibody (2191), for which the Percentage of recognition of HIV-1 Env in experiment [1] is 2.9%.

Substance “HIV-1 gp120 Monoclonal Antibody (F425 B4a1)” returned a Percentage of recognition of HIV-1 Env in [1] of 2.5%.

For HIV-1 gp120 Monoclonal Antibody (17b), in [10], the dissociation constant Kd came out at 0.982 nM and the off-rate constant (koff) is 2.59e-06 s⁻¹. In experiment [1], the Percentage of recognition of HIV-1 Env came to 1.5%.

HIV-1 gp120 Monoclonal Antibody (48d) showed a Percentage of recognition of HIV-1 Env in experiment [1] of 3.1%.

In experiment [1], HIV-1 gp120 MAb (A32) (antibody) displayed a Percentage of recognition of HIV-1 Env of 79.2%.

In turn, HIV-1 V2V3 Monoclonal Antibody (2909) displayed a Percentage of recognition of HIV-1 Env in experiment [1] of 5.6%.

For the substance HIV-1 gp41 MAb (IgG1 Z13e1) (antibody), the Percentage of recognition of HIV-1 Env in experiment [1] turned out to be 5.2%.

In experiment [1], HIV-1 MAb PG16 (antibody) yielded a Percentage of recognition of HIV-1 Env of 1.5%.

HIV 1 V3 Monoclonal Antibody (2442) gave a Percentage of recognition of HIV-1 Env in experiment [1] of 6.6%.

As usually defined, the EC50 (read off the curve) is the midpoint of the concentration-response curve. A word on the Kd: it is the constant that tells how readily two partners part at equilibrium. By koff is commonly meant the rate constant with which the complex falls apart. A high value points to fast dissociation. The term kon denotes the second-order rate constant of association.
